How the values were obtained:
Abz-GGFLRKHGQ-EDDnp [1] = assay: Enzyme activity assay, kinetics of wild type rIDE and distal site mutants with fluorogenic substrate; type: biochemical
Protocol: FIG. 17. Effects of distal site mutations. (A) Comparison of the kinetics of wild type IDE with the distal site mutants. Activity was measured with varying amounts of Abz-[…]-EDDnp (SEQ ID NO:3) substrate as indicated. Either hyperbolic (Michaelis-Menten equation) or sigmoidal curves (Hill equation) were fit to the data. (B) Effect of bradykinin on the activity of wild type IDE and the distal site mutants. (C) Activation of wild type IDE and distal site mutants by ATP. Relative activity is the fold activation above the level of the wild type enzyme alone.
The activity of IDE was measured by following the increase in fluorescence upon hydrolysis at the L-R bond of the fluorogenic peptide Abz-[…]-EDDnp (SEQ ID NO:3) on a SpectraMax Gemini XS fluorescence plate reader using an excitation wavelength of 318 nm and emission wavelength of 419 nm. Reactions were carried out in 200 μl volumes containing 50 mM Tris-HCl, pH 7.4, 1.92 μg of wild type rIDE, 4.6 μg of rIDE-V360S, 4.3 μg rIDE-I374S, or 1.63 μg of rIDE-Y609F. For measurements of activation by bradykinin, IDE activity was determined with 10 μM Abz-[…]-EDDnp (SEQ ID NO:3) as substrate in 50 mM Tris-HCl buffer, pH 7.4. The amount of protein was 0.5 μg for wild type rIDE and 5 μg for each of the IDE distal-site mutants. Data were analyzed using Softmax 4.0 (Molecular Devices) and kinetic parameters calculated with Prism (Graphpad Software). […] Under these assay conditions, both wild type and mutant rIDE are almost completely dimeric.

[2] = ATPase activity, Pi release with acid-molybdate; type: biochemical; conditions: 1 mM ATP as substrate
Protocol: (§1) IDE activity was determined by measuring the increase in fluorescence that occurs when the enzyme cleaves the internally quenched fluorogenic substrate Abz-[…]-EDDnp (SEQ ID NO:3) at the R—K bond (Song et al., Journal of Biologial Chemistry 276, 1152-1155 (2001)). The reaction was followed on a SpectraMax Gemini XS fluorescence plate reader using an excitation and emission wavelengths of 318 nm and 419 nm, respectively. Initial velocities were determined using SoftMax Pro 4.0 and kinetic constants calculated using GraphPad Prism 4.0. ATPase activity was measured by following Pi release with acid-molybdate as described by Harder et al. (Harder et al., Biochemical Journal 298 (Pt 2), 395-401 (1994)).

Abz-GGFLRKHGQ-EDDnp [3] = assay: Enzyme activity assay, kinetics of IDE and ATP binding site mutants with fluorogenic substrate; type: biochemical; conditions: rat IDE, Abz-GGFLRKHGQ-EDDnp as substrate
Protocol: Reactions were conducted in 50 mM Tris-HCl, pH 7.4.
as §1

Saccharomyces cerevisiae = assay: IDE activity assay in yeast, spot halo assay for a-factor production; type: cell-based; conditions: spot halo assay on RC757 lawn
Protocol: Panel A depicts immunoblot of yeast-expressed IDE and IDE^K898A,K899A,S901A. Equivalent percentage amounts of total cellular extracts from yeast containing an empty expression vector or plasmids encoding IDE or the IDE^K898A,K899A,S901A mutant were analyzed by SDS-PAGE and immunoblotting using an IDE-specific antibody. […] An excess of MATa yeast were mixed with decreasing numbers of MATa cells deficient for Axl1p and Step 23p that were transformed with either an empty expression vector or a vector encoding IDE or IDE^K898A,K899A,S901A as indicated. Mating, which leads to colony growth, is dependent on production of mature a-factor pheromone by plasmid-encoded IDE. […] Concentrated samples of a-factor recovered from yeast bearing the indicated expression vector were spotted at the indicated dilutions on a lawn of RC757 MATa cells, which undergo growth arrest upon exposure to a-factor pheromone. […]
The assays take advantage of the ability of IDE, in lieu of the yeast M16 metallopeptidases Axl1p and Step 23p, to participate in the proteolytic maturation of yeast a-factor mating pheromone. […] Growth of diploid colonies, indicative of mating, was scored 3 days after incubation of plates at 30° C. […] Results of mating tests and halo assays were recorded by scanning plates with a Microtek flatbed scanner and importing digitized images into Photoshop and PowerPoint.

B1: IDE: Native rat insulin degrading enzyme (SEQ ID NO:1), expressed as hexahistidine fusion protein in Sf9 insect cells (protein, listed as Rattus norvegicus)
chain: MRNGLVWLLHPALPSTLHSILGARPPPVKRLCGFPKQIYSTMNNPAIQRIEDHIVKSPEDKREYRGLELANGIKVLLISDPTTDKSSAALDVHIGSLSDPPNIPGLSHFCEHMLFLGTKKYPKENEYSQFLSEHAGSSNAFTSGEHTNYYFDVSHEHLEGALDRFAQFFLCPLFDASCKDREVNAVDSEHEKNVMNDAWRLFQLEKATGNPKHPFSKFGTGNKYTLETRPNQEGIDVREELLKFHSTYYSSNLMAICVLGRESLDDLTNLVVKLFSEVENKNVPLPEFPEHPFQEEHLKQLYKIVPIKDIRNLYVTFPIPDLQQYYKSNPGHYLGHLIGHEGPGSLLSELKSKGWVNTLVGGQKEGARGFMFFIINVDLTEEGLLHVEDIILHMFQYIQKLRAEGPQEWVFQECKDLNAVAFRFKDKERPRGYTSKIAGKLHYYPLNGVLTAEYLLEEFRPDLIDMVLDKLRPENVRVAIVSKSFEGKTDRTEQWYGTQYKQEAIPEDVIQKWQNADLNGKFKLPTKNEFIPTNFEILALEKDATPYPALIKDTAMSKLWFKQDDKFFLPKACLNFEFFSPFAYVDPLHCNMAYLYLELLKDSLNEYAYAAELAGLSYDLQNTIYGMYLSVKGYNDKQPILLKKITEKMATFEIDKKRFEIIKEAYMRSLNNFRAEQPHQHAMYYLRLLMTEVAWTKDELKEALDDVTLPRLKAFIPQLLSRLHIEALLHGNITKQAALGVMQMVEDTLIEHAHTKPLLPSQLVRYREVQLPDRGWFVYQRRNEVHNNCGIEIYYQTDMQSTSENMFLELFCQIISEPCFNTLRTKEQLGYIVFSGPRRANGIQGLRFIIQSEKPPHYLESRVEAFLITMEKAIEDMTEEAFQKHIQALAIRRLDKPKKLSAECAKYWGEIISQQYNYDRDNIEVAYLKTLSKDDIIKFYKEMLAVDAPRRHKVSVHVLAREMDSCPVVGEFPSQNDINLSEAPPLPQPEVIHNMTEFKRGLPLFPLVKPHINFMAAKL
modifications: hexahistidine tag; wild-type Insulin Degrading Enzyme (IDE) from rat
Specific activity (Abz-GGFLRKHGQ-EDDnp [1]; Abz-GGFLRKHGQ-EDDnp substrate): 8,131 nmol/min/mg
Km (Abz-GGFLRKHGQ-EDDnp [1]; rat IDE, Abz-GGFLRKHGQ-EDDnp as substrate): 15.9 ± 1.19 µM
Vmax (Abz-GGFLRKHGQ-EDDnp [1]; rat IDE, Abz-GGFLRKHGQ-EDDnp as substrate, 50 mM Tris-HCl, pH 7.4): 35.5 ± 11.6 nmol/min/mg
Hill coefficient (Abz-GGFLRKHGQ-EDDnp [1]; rat IDE, Abz-GGFLRKHGQ-EDDnp as substrate, listed as Wild Type): 1.8 ± 0.16
Hill coefficient (Abz-GGFLRKHGQ-EDDnp [1]; rat IDE, Abz-GGFLRKHGQ-EDDnp as substrate, listed as wild type enzyme): 1.80
IDE-dependent ATPase activity [2]: less than 1 nmol/min/mg IDE
Hill coefficient (Abz-GGFLRKHGQ-EDDnp [3]): 2.1 ± 0.3
Km (Abz-GGFLRKHGQ-EDDnp [3]): 9.6 ± 0.7 mM
kcat (Abz-GGFLRKHGQ-EDDnp [3]): 5.2 ± 0.2 min⁻¹
Vmax (Abz-GGFLRKHGQ-EDDnp [3]; 50 mM Tris-HCl, pH 7.4): 47.2 ± 1.7 nmol/min/mg
production of a-factor by yeast (Saccharomyces cerevisiae): greater production of a-factor

Source: patent US8632989B1, “Mutant insulin degrading enzyme and methods of use” (University of Kentucky Research Foundation, priority 2011, dated 2014)
